Source: PMC9482650, “Quantitative fragmentomics allow affinity mapping of interactomes” (Nature Communications, 2022)

Key:
Assay in all cases: holdup assay
Design in all cases: key: below the threshold = too weak to quantify, mostly under pKd 3.1 to 4
Details in all cases: plain residues with an end cap or a label only (N-terminal biotin on a linker: ado-ado)
[1] = molecular target: AHNAK1, Q09666
[2] = molecular target: TJP2_1, Q9UDY2
[3] = molecular target: DLG4_3, P78352
[4] = molecular target: T1, MPP6, Q9NZW5
T1 sequence (Q9NZW5 125-219, limits assumed, looked up): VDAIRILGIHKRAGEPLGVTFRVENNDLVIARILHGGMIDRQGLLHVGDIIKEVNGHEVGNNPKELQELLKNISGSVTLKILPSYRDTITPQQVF

[5] = molecular target: SNX27, Q96L92
[6] = molecular target: NHERF4_1, Q86UT5-2
NHERF4_1, Q86UT5-2, sequence (Q86UT5 other isoform, or with tags, fused parts or gaps): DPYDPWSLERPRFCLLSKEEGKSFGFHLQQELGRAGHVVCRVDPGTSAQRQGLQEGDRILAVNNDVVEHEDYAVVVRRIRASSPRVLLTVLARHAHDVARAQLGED

[7] = molecular target: Inadl_9, Q8NI35
Inadl_9, Q8NI35, sequence (Q8NI35 1530-1615): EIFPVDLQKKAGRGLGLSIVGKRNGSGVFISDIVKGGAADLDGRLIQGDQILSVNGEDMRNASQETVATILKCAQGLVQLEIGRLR

[8] = molecular target: FRMPD3, Q5JV73
FRMPD3, Q5JV73, sequence (Q5JV73 12-100): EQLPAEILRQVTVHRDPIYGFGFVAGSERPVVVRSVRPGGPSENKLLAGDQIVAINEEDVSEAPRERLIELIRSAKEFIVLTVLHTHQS

[9] = molecular target: T2, MPDZ_10, O75970
T2 sequence (O75970 1624-1722, limits assumed, looked up): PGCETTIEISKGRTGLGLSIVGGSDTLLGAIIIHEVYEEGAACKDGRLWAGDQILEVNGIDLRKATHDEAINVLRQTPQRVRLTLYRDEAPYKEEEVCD

[10] = molecular target: DLG5_1, Q8TDM6
DLG5_1, Q8TDM6, sequence (Q8TDM6 617-713): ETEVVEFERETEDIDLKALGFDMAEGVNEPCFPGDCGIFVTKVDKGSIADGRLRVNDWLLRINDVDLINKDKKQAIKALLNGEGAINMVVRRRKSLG

[11] = molecular target: NOS1, P29475
NOS1, P29475, sequence (P29475 9-101): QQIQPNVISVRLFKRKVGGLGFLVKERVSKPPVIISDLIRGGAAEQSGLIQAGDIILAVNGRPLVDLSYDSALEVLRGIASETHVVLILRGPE

[12] = molecular target: Inadl_2, Q8NI35
Inadl_2, Q8NI35, sequence (Q8NI35 238-335): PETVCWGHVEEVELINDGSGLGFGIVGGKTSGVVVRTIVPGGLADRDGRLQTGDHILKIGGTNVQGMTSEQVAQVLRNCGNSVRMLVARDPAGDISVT

[13] = molecular target: MAST1, Q9Y2H9
MAST1, Q9Y2H9, sequence (Q9Y2H9 962-1065): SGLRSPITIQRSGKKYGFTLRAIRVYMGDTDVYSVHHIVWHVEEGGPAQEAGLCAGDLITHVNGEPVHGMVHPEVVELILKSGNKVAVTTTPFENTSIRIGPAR

[14] = molecular target: PARD3_3, Q8TEW0
PARD3_3, Q8TEW0, sequence (Q8TEW0 582-685): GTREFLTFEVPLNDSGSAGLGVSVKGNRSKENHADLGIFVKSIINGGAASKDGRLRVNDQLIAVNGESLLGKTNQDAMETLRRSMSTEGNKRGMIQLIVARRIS

[15] = molecular target: T3, SYNJ2BP, P57105
T3 sequence (P57105 8-110, limits assumed, looked up): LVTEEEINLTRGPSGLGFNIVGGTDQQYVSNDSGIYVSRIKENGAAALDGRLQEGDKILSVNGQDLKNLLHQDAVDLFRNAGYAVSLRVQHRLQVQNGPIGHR

[16] = molecular target: DLG1_3, Q12959
DLG1_3, Q12959, sequence (Q12959 457-571): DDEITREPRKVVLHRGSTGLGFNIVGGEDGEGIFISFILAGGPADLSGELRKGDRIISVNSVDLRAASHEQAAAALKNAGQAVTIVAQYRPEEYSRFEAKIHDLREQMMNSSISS

[17] = molecular target: T4, RADIL, Q96JH8
T4 sequence (Q96JH8 971-1071, limits assumed, looked up): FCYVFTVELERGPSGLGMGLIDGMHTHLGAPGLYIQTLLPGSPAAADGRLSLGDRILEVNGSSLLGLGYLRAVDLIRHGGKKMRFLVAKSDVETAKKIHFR

[18] = molecular target: T5, DLG3_3, Q92796
T5 sequence (Q92796 374-475, limits assumed, looked up): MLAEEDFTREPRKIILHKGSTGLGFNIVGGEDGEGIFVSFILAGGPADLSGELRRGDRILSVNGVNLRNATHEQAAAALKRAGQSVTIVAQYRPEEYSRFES

[19] = molecular target: T6, SNTG2, Q9NY99
T6 sequence (Q9NY99 68-166, limits assumed, looked up): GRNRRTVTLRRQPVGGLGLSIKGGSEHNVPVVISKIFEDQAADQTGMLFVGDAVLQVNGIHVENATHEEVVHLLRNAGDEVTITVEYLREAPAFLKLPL

[20] = molecular target: GRASP, Q7Z6J2
GRASP, Q7Z6J2, sequence (Q7Z6J2 96-193): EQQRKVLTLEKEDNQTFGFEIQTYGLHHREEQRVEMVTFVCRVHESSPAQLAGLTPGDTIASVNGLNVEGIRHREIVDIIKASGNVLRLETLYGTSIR

[21] = molecular target: T7, LIN7B, Q9HAP6
T7 sequence (Q9HAP6 88-185, limits assumed, looked up): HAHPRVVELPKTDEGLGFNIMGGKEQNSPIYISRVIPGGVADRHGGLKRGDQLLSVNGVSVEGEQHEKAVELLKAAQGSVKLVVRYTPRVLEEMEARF

[22] = molecular target: IL16_4, Q14005
IL16_4, Q14005, sequence (Q14005 1229-1329): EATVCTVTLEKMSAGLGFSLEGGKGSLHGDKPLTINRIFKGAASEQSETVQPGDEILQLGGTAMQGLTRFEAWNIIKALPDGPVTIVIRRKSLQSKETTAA

[23] = molecular target: T8, APBA3_1, O96018
T8 sequence (O96018 389-490, limits assumed, looked up): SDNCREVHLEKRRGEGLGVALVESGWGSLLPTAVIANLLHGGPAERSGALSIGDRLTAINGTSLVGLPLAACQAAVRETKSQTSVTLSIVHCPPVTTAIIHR

[24] = molecular target: T9, LRRC7, Q96NW7
T9 sequence (Q96NW7 1440-1537, limits assumed, looked up): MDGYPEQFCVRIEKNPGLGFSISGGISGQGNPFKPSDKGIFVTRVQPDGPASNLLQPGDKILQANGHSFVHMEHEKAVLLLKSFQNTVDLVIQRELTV

[25] = molecular target: Inadl_6, Q8NI35
Inadl_6, Q8NI35, sequence (Q8NI35 1058-1167): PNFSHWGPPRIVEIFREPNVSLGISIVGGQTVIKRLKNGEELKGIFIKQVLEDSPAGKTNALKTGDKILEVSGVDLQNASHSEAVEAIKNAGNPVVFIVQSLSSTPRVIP

[26] = molecular target: T10, PARD3B_1, Q8TEW8
T10 sequence (Q8TEW8 196-299, limits assumed, looked up): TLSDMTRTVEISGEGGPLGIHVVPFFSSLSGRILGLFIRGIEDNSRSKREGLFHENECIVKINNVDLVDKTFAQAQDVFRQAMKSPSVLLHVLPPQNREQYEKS

[27] = molecular target: MAGI1_2, Q96QZ7
MAGI1_2, Q96QZ7, sequence (Q96QZ7 456-580): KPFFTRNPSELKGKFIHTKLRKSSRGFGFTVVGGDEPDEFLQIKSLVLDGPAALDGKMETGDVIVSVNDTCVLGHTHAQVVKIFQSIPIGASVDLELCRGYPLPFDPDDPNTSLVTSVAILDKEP

[28] = molecular target: NHERF2_2, Q15599
NHERF2_2, Q15599, sequence (Q15599 142-238): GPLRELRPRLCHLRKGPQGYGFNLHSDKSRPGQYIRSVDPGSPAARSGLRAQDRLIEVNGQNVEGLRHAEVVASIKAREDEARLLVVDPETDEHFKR

AHNAK1, Q09666, sequence (Q09666 4-100): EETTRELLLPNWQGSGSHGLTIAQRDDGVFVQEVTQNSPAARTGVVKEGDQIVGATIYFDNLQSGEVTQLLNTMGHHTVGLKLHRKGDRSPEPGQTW
DLG4_3, P78352, sequence (P78352 306-403): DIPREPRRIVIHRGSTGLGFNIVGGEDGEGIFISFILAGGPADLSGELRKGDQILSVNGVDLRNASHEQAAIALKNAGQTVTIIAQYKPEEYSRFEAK
TJP2_1, Q9UDY2, sequence (Q9UDY2 24-128): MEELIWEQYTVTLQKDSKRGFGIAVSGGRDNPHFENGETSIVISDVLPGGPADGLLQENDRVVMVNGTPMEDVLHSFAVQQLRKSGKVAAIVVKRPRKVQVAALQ

B1: PFKM, P08237 (peptide)
chain: TRKRSGEAAV
pKd [1]: below the threshold | pKd [2]: below the threshold | pKd [3]: below the threshold | pKd [4]: below the threshold | pKd [5]: 3.83 | pKd [6]: below the threshold | pKd [7]: below the threshold | pKd [8]: below the threshold | pKd [9]: below the threshold | pKd [10]: below the threshold | pKd [11]: 4.16 | pKd [12]: below the threshold | pKd [13]: 4.08 | pKd [14]: below the threshold | pKd [15]: 4.06 | pKd [16]: below the threshold | pKd [17]: below the threshold | pKd [18]: below the threshold | pKd [19]: below the threshold | pKd [20]: below the threshold | pKd [21]: below the threshold | pKd [22]: 3.64 | pKd [23]: below the threshold | pKd [24]: below the threshold | pKd [25]: below the threshold | pKd [26]: below the threshold | pKd [27]: below the threshold | pKd [28]: below the threshold

B2: PLXNB1, O43157 (peptide)
chain: AAVENKVTDL
pKd [1]: below the threshold | pKd [2]: below the threshold | pKd [3]: below the threshold | pKd [4]: below the threshold | pKd [5]: 4.12 | pKd [6]: 4 | pKd [7]: below the threshold | pKd [8]: below the threshold | pKd [9]: below the threshold | pKd [10]: below the threshold | pKd [11]: below the threshold | pKd [12]: below the threshold | pKd [13]: 4.67 | pKd [14]: below the threshold | pKd [15]: below the threshold | pKd [16]: below the threshold | pKd [17]: below the threshold | pKd [18]: below the threshold | pKd [19]: 3.98 | pKd [20]: 3.93 | pKd [21]: below the threshold | pKd [22]: below the threshold | pKd [23]: below the threshold | pKd [24]: 3.74 | pKd [25]: 4.14 | pKd [26]: 3.54 | pKd [27]: below the threshold | pKd [28]: 4.07

B3: FZD4, Q9ULV1 (peptide)
chain: KPGKGSETVV
pKd [1]: below the threshold | pKd [2]: below the threshold | pKd [3]: 3.79 | pKd [4]: below the threshold | pKd [5]: 4.62 | pKd [6]: below the threshold | pKd [7]: below the threshold | pKd [8]: below the threshold | pKd [9]: below the threshold | pKd [10]: 3.54 | pKd [11]: 3.81 | pKd [12]: below the threshold | pKd [13]: 4.4 | pKd [14]: below the threshold | pKd [15]: 4.3 | pKd [16]: below the threshold | pKd [17]: 3.97 | pKd [18]: 4.02 | pKd [19]: 4.26 | pKd [20]: below the threshold | pKd [21]: below the threshold | pKd [22]: below the threshold | pKd [23]: below the threshold | pKd [24]: below the threshold | pKd [25]: 3.56 | pKd [26]: below the threshold | pKd [27]: 4.47 | pKd [28]: below the threshold

B4: RNF130, Q86XS8 (peptide)
chain: SLNANEVEWF
pKd [1]: below the threshold | pKd [2]: 3.67 | pKd [3]: below the threshold | pKd [4]: 4.05 | pKd [5]: 3.94 | pKd [6]: 3.89 | pKd [7]: below the threshold | pKd [8]: 4.07 | pKd [9]: below the threshold | pKd [10]: below the threshold | pKd [11]: 4 | pKd [12]: 4.09 | pKd [13]: 3.96 | pKd [14]: 5.28 | pKd [15]: below the threshold | pKd [16]: 3.64 | pKd [17]: 4.59 | pKd [18]: 3.63 | pKd [19]: below the threshold | pKd [20]: 4.08 | pKd [21]: 3.89 | pKd [22]: below the threshold | pKd [23]: 3.55 | pKd [24]: below the threshold | pKd [25]: 3.57 | pKd [26]: 4.35 | pKd [27]: below the threshold | pKd [28]: 4.56
